Measured values published in paper PMC212687.

Biological target: RAG1;RAG2;HMG (HMG-1/2) (;;) (UniProt P15919+P21784)
Experiment: EMSA
Conditions: Standard gel shift, conditions as in Fugmann et al. 2000b (not given in the material), three experiments

## GATCTGGCCTGGTCTGCACAACCCTGTGACTCCCAAGAGAAACCTGCACTCGAGCGGAG (double strand) [Jβ2.6 12-RSS]
About 2-fold reduced
  binding signal (relative to Jβ2.2): 0.5

## GATCTGGCCTGGTCTGCACAGTGCAGATCTAGGAGACAAAAACCTGCACTCGAGCGGAG (double strand) [H-Sac-N]
About 3-fold reduced vs H-Sc-N
  binding signal (relative to H-Sc-N): 0.33

## GATCTGGCCTGGTTTGCACAGTCCTGGAAATGCTGGCACAAACCTGCACTCGAGCGGAG (double strand) [Jβ2.2 12-RSS]
  binding signal (relative to Jβ2.2): 1

## GATCTGGCCTGGTCTGCACAACCCTGTGACTCCCAACAAAAACCTGCACTCGAGCGGAG (double strand) [N (Jβ2.6 with consensus nonamer)]
Up to level of Jβ2.2
  binding signal (relative to Jβ2.2): 1
